{"source": "patent US6703362", "about": "(CYTOGEN, dated 2004)", "binders": {"B1": {"name": "PAX43 (peptide)", "peptide": "RWCEKHKFTAARCSAGAGFERDASRPPQPAHRDNTNRNAAETVESCLAKPHTENSFTNVWKDDKTLDRYANYEGCLWNATGVVVCTGDETQCYGTWVPIGLAIPENEGGGSEGGGSEGGGSEGGGTKPPEYGDTPIPGYTYINPLDGTYPPGTEQNPANPNPSLEESQPLNTFMFQNNRFRNRQGALTVYTGTVTQGTDPVKTYYQYTPVSSKAMYDAYWNGKFRDCAFHSGFNEDPFVCEYQGQSSDLPQPPVNAGGGSGGGSGGGSEGGGSEGGGSEGGGSEGGGSGGGSGSGDFDYEKMANANKGAMTENADENALQSDAKGKLDSVATDYGAAIDGFIGDVSGLANGNGATGDFAGSNSQMAQVGDGDNSPLMNNFRQYLPSLPQSVECRPFVFSAGKPYEFSIDCDKINLFRGVFAFLLYVATFMYVFSTFANILRNKES", "notes": "Assayed as M13 phage clone displaying the insert"}, "B2": {"name": "5PAX3 (peptide)", "peptide": "RPKNVADAYSSQDGAAAEETSHASNAARKSPKHKPLRRPAETVESCLAKPHTENSFTNVWKDDKTLDRYANYEGCLWNATGVVVCTGDETQCYGTWVPIGLAIPENEGGGSEGGGSEGGGSEGGGTKPPEYGDTPIPGYTYINPLDGTYPPGTEQNPANPNPSLEESQPLNTFMFQNNRFRNRQGALTVYTGTVTQGTDPVKTYYQYTPVSSKAMYDAYWNGKFRDCAFHSGFNEDPFVCEYQGQSSDLPQPPVNAGGGSGGGSGGGSEGGGSEGGGSEGGGSEGGGSGGGSGSGDFDYEKMANANKGAMTENADENALQSDAKGKLDSVATDYGAAIDGFIGDVSGLANGNGATGDFAGSNSQMAQVGDGDNSPLMNNFRQYLPSLPQSVECRPFVFSAGKPYEFSIDCDKINLFRGVFAFLLYVATFMYVFSTFANILRNKES", "notes": "as for B1"}, "B3": {"name": "PAX9 (peptide)", "peptide": "RWPSVGYKGNGSDTIDVHSNDASTKRSLIYNHRRPLFPAETVESCLAKPHTENSFTNVWKDDKTLDRYANYEGCLWNATGVVVCTGDETQCYGTWVPIGLAIPENEGGGSEGGGSEGGGSEGGGTKPPEYGDTPIPGYTYINPLDGTYPPGTEQNPANPNPSLEESQPLNTFMFQNNRFRNRQGALTVYTGTVTQGTDPVKTYYQYTPVSSKAMYDAYWNGKFRDCAFHSGFNEDPFVCEYQGQSSDLPQPPVNAGGGSGGGSGGGSEGGGSEGGGSEGGGSEGGGSGGGSGSGDFDYEKMANANKGAMTENADENALQSDAKGKLDSVATDYGAAIDGFIGDVSGLANGNGATGDFAGSNSQMAQVGDGDNSPLMNNFRQYLPSLPQSVECRPFVFSAGKPYEFSIDCDKINLFRGVFAFLLYVATFMYVFSTFANILRNKES", "notes": "as for B1"}, "B4": {"name": "PAX38 (peptide)", "peptide": "SSKVSSPRDPTVPRKGGNVDYGCGHRSSARMPTSALSSITKCYTAETVESCLAKPHTENSFTNVWKDDKTLDRYANYEGCLWNATGVVVCTGDETQCYGTWVPIGLAIPENEGGGSEGGGSEGGGSEGGGTKPPEYGDTPIPGYTYINPLDGTYPPGTEQNPANPNPSLEESQPLNTFMFQNNRFRNRQGALTVYTGTVTQGTDPVKTYYQYTPVSSKAMYDAYWNGKFRDCAFHSGFNEDPFVCEYQGQSSDLPQPPVNAGGGSGGGSGGGSEGGGSEGGGSEGGGSEGGGSGGGSGSGDFDYEKMANANKGAMTENADENALQSDAKGKLDSVATDYGAAIDGFIGDVSGLANGNGATGDFAGSNSQMAQVGDGDNSPLMNNFRQYLPSLPQSVECRPFVFSAGKPYEFSIDCDKINLFRGVFAFLLYVATFMYVFSTFANILRNKES", "notes": "as for B1"}, "B5": {"name": "PAX35 (peptide)", "peptide": "RSITDGGINEVDLSSVSNVLENANSHRAYRKHRPTLKRPAETVESCLAKPHTENSFTNVWKDDKTLDRYANYEGCLWNATGVVVCTGDETQCYGTWVPIGLAIPENEGGGSEGGGSEGGGSEGGGTKPPEYGDTPIPGYTYINPLDGTYPPGTEQNPANPNPSLEESQPLNTFMFQNNRFRNRQGALTVYTGTVTQGTDPVKTYYQYTPVSSKAMYDAYWNGKFRDCAFHSGFNEDPFVCEYQGQSSDLPQPPVNAGGGSGGGSGGGSEGGGSEGGGSEGGGSEGGGSGGGSGSGDFDYEKMANANKGAMTENADENALQSDAKGKLDSVATDYGAAIDGFIGDVSGLANGNGATGDFAGSNSQMAQVGDGDNSPLMNNFRQYLPSLPQSVECRPFVFSAGKPYEFSIDCDKINLFRGVFAFLLYVATFMYVFSTFANILRNKES", "notes": "as for B1"}, "B6": {"name": "PAX40 (peptide)", "peptide": "RASTQGGRGVAPEFGASVLGRGCGSATYYTNSTSCKDAMGHNYSAETVESCLAKPHTENSFTNVWKDDKTLDRYANYEGCLWNATGVVVCTGDETQCYGTWVPIGLAIPENEGGGSEGGGSEGGGSEGGGTKPPEYGDTPIPGYTYINPLDGTYPPGTEQNPANPNPSLEESQPLNTFMFQNNRFRNRQGALTVYTGTVTQGTDPVKTYYQYTPVSSKAMYDAYWNGKFRDCAFHSGFNEDPFVCEYQGQSSDLPQPPVNAGGGSGGGSGGGSEGGGSEGGGSEGGGSEGGGSGGGSGSGDFDYEKMANANKGAMTENADENALQSDAKGKLDSVATDYGAAIDGFIGDVSGLANGNGATGDFAGSNSQMAQVGDGDNSPLMNNFRQYLPSLPQSVECRPFVFSAGKPYEFSIDCDKINLFRGVFAFLLYVATFMYVFSTFANILRNKES", "notes": "as for B1"}, "B7": {"name": "5PAX12 (peptide)", "peptide": "RGWKCEGSQAAYGDKDIGRSRGCGSITKNNTNHAHPSHGAVAKIAETVESCLAKPHTENSFTNVWKDDKTLDRYANYEGCLWNATGVVVCTGDETQCYGTWVPIGLAIPENEGGGSEGGGSEGGGSEGGGTKPPEYGDTPIPGYTYINPLDGTYPPGTEQNPANPNPSLEESQPLNTFMFQNNRFRNRQGALTVYTGTVTQGTDPVKTYYQYTPVSSKAMYDAYWNGKFRDCAFHSGFNEDPFVCEYQGQSSDLPQPPVNAGGGSGGGSGGGSEGGGSEGGGSEGGGSEGGGSGGGSGSGDFDYEKMANANKGAMTENADENALQSDAKGKLDSVATDYGAAIDGFIGDVSGLANGNGATGDFAGSNSQMAQVGDGDNSPLMNNFRQYLPSLPQSVECRPFVFSAGKPYEFSIDCDKINLFRGVFAFLLYVATFMYVFSTFANILRNKES", "notes": "as for B1"}, "B8": {"name": "PAX18 (peptide)", "peptide": "SFLRFQSPRFEDYSRTISRLRNATNPSNVSDAHNNRALAAETVESCLAKPHTENSFTNVWKDDKTLDRYANYEGCLWNATGVVVCTGDETQCYGTWVPIGLAIPENEGGGSEGGGSEGGGSEGGGTKPPEYGDTPIPGYTYINPLDGTYPPGTEQNPANPNPSLEESQPLNTFMFQNNRFRNRQGALTVYTGTVTQGTDPVKTYYQYTPVSSKAMYDAYWNGKFRDCAFHSGFNEDPFVCEYQGQSSDLPQPPVNAGGGSGGGSGGGSEGGGSEGGGSEGGGSEGGGSGGGSGSGDFDYEKMANANKGAMTENADENALQSDAKGKLDSVATDYGAAIDGFIGDVSGLANGNGATGDFAGSNSQMAQVGDGDNSPLMNNFRQYLPSLPQSVECRPFVFSAGKPYEFSIDCDKINLFRGVFAFLLYVATFMYVFSTFANILRNKES", "notes": "as for B1"}, "B9": {"name": "PAX17 (peptide)", "peptide": "SQVDSFRNSFRWYEPSRALCHGCGKRDTSTTRIHNSPSDSYPTRAETVESCLAKPHTENSFTNVWKDDKTLDRYANYEGCLWNATGVVVCTGDETQCYGTWVPIGLAIPENEGGGSEGGGSEGGGSEGGGTKPPEYGDTPIPGYTYINPLDGTYPPGTEQNPANPNPSLEESQPLNTFMFQNNRFRNRQGALTVYTGTVTQGTDPVKTYYQYTPVSSKAMYDAYWNGKFRDCAFHSGFNEDPFVCEYQGQSSDLPQPPVNAGGGSGGGSGGGSEGGGSEGGGSEGGGSEGGGSGGGSGSGDFDYEKMANANKGAMTENADENALQSDAKGKLDSVATDYGAAIDGFIGDVSGLANGNGATGDFAGSNSQMAQVGDGDNSPLMNNFRQYLPSLPQSVECRPFVFSAGKPYEFSIDCDKINLFRGVFAFLLYVATFMYVFSTFANILRNKES", "notes": "as for B1"}, "B10": {"name": "PAX46 (peptide)", "peptide": "SRCTDNEQCPDTGTRSRSVSNARYFSSRLLKTHAPHRPAETVESCLAKPHTENSFTNVWKDDKTLDRYANYEGCLWNATGVVVCTGDETQCYGTWVPIGLAIPENEGGGSEGGGSEGGGSEGGGTKPPEYGDTPIPGYTYINPLDGTYPPGTEQNPANPNPSLEESQPLNTFMFQNNRFRNRQGALTVYTGTVTQGTDPVKTYYQYTPVSSKAMYDAYWNGKFRDCAFHSGFNEDPFVCEYQGQSSDLPQPPVNAGGGSGGGSGGGSEGGGSEGGGSEGGGSEGGGSGGGSGSGDFDYEKMANANKGAMTENADENALQSDAKGKLDSVATDYGAAIDGFIGDVSGLANGNGATGDFAGSNSQMAQVGDGDNSPLMNNFRQYLPSLPQSVECRPFVFSAGKPYEFSIDCDKINLFRGVFAFLLYVATFMYVFSTFANILRNKES", "notes": "as for B1"}, "B11": {"name": "5PAX7 (peptide)", "peptide": "RWGWERSPSDYDSDMDLGARRYATRTHRAPPRVLKAPLPAETVESCLAKPHTENSFTNVWKDDKTLDRYANYEGCLWNATGVVVCTGDETQCYGTWVPIGLAIPENEGGGSEGGGSEGGGSEGGGTKPPEYGDTPIPGYTYINPLDGTYPPGTEQNPANPNPSLEESQPLNTFMFQNNRFRNRQGALTVYTGTVTQGTDPVKTYYQYTPVSSKAMYDAYWNGKFRDCAFHSGFNEDPFVCEYQGQSSDLPQPPVNAGGGSGGGSGGGSEGGGSEGGGSEGGGSEGGGSGGGSGSGDFDYEKMANANKGAMTENADENALQSDAKGKLDSVATDYGAAIDGFIGDVSGLANGNGATGDFAGSNSQMAQVGDGDNSPLMNNFRQYLPSLPQSVECRPFVFSAGKPYEFSIDCDKINLFRGVFAFLLYVATFMYVFSTFANILRNKES", "notes": "as for B1"}, "B12": {"name": "PAX45 (peptide)", "peptide": "SFQVYPDHGLERHALDGTGPLYAMPGRWIRARPQNRDRQAETVESCLAKPHTENSFTNVWKDDKTLDRYANYEGCLWNATGVVVCTGDETQCYGTWVPIGLAIPENEGGGSEGGGSEGGGSEGGGTKPPEYGDTPIPGYTYINPLDGTYPPGTEQNPANPNPSLEESQPLNTFMFQNNRFRNRQGALTVYTGTVTQGTDPVKTYYQYTPVSSKAMYDAYWNGKFRDCAFHSGFNEDPFVCEYQGQSSDLPQPPVNAGGGSGGGSGGGSEGGGSEGGGSEGGGSEGGGSGGGSGSGDFDYEKMANANKGAMTENADENALQSDAKGKLDSVATDYGAAIDGFIGDVSGLANGNGATGDFAGSNSQMAQVGDGDNSPLMNNFRQYLPSLPQSVECRPFVFSAGKPYEFSIDCDKINLFRGVFAFLLYVATFMYVFSTFANILRNKES", "notes": "as for B1"}}}
{"target": "T1, hPEPT1 receptor domain (human PEPT1, amino acid residues 391-571), His-tag fusion protein (human, UniProt P46059 391-571)", "T1 construct": "purified under denaturing conditions; also called recombinant hPEPT1; not shown: poly-histidine tag (pET vector) at the NH2-terminal end", "T1 sequence": "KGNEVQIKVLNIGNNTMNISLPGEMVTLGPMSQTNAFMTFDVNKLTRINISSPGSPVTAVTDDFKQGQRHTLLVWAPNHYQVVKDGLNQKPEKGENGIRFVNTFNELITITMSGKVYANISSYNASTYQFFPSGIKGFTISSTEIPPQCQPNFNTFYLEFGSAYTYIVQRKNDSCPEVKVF", "assay": "phage ELISA, plate coated with hPEPT1 domain", "protocol": "6.6. Receptor ELISA Procedure 96 well plates were coated overnight with GIT receptor, BSA and, optionally, IDE (insulin degrading enzyme, an irrelevant His-fusion protein)or hTF. The plates were blocked for one hour with 0.5% BSA-PBS. After clarification, the amplified phage were diluted 1:100 in […] plus 0.05% Tween 20 in PBS and added to the plates. Following incubation of the plates on a rotator for 1 to 2 hours, the plates were washed 5 times with 1% BSA plus 0.05% Tween 20 in PBS. […] After the plates were washed 5 times, as described above, TMB substrate was added to the wells. The plates were read at 650 nm absorbance.", "units": {"OD": "OD"}}
{"binder": "B1", "OD": 0.345}
{"binder": "B2", "OD": 0.173}
{"binder": "B3", "OD": 0.312}
{"binder": "B4", "OD": 0.292}
{"binder": "B5", "OD": 0.474}
{"binder": "B6", "OD": 0.461}
{"binder": "B7", "OD": 0.227}
{"binder": "B8", "OD": 0.416}
{"binder": "B9", "OD": 0.514}
{"binder": "B10", "OD": 0.429}
{"binder": "B11", "OD": 0.171}
{"binder": "B12", "OD": 0.419}
